Test system: T1, O=[N+]([O-])c1ccc(O[C@@H]2O[C@H](CO)[C@@H](O)[C@H](O)[C@H]2O)cc1
T1 construct: signal peptide removed, starts at residue 29 with added Met; C-terminal His6 (reverse primer), pQE30, E. coli JM109, Ni-NTA
Experiment: purified protein
Type: biochemical, Sphingomonas sp. ATCC 31555
Details: McIlvaine buffer, pH 5.5, 45 °C, 0.1–20 mM pNPG

SpBGL1 (Sphingomonas sp. ATCC 31555)
Km: 13.09 ± 3.43 mM
